Experiments:
[1] = biological target: T1, R441Q mutant of GST-IbIIa (Mus musculus, UniProt P11881, R441Q); test: GST pulldown with R441Q; format: binding; settings: IRBIT in high salt extract; compared with GST-IbIIa
T1 construct: GST-IbIIa (amino acids 224-604 of mouse IP3R1) and its site-directed mutants K508A and R441Q; made in house
Text: The cDNAs encoding the full-length and N-terminal region (amino acids 1-104) of IRBIT were subcloned into the Escherichia coli hexahistidine (His) fusion vector pET-23a(+) (Novagen) to generate IRBIT-His and IRBIT(1-104)-His expression vectors, respectively. The same cDNAs were subcloned into the GST fusion vector pGEX-4T-1 (Amersham Pharmacia Biotech) to generate GST-IRBIT and GST-IRBIT(1-104) expression vectors, respectively. The cDNA fragments encoding the amino acids 1-225, 1-343, 341-923, 600-1248, 916-1581 and 1553-1943 of the amino acid sequence (SEQ ID NO: 7) of mouse IP3R1 were inserted into pGEX-KG to generate GST-Ia, GST-Iab, GST-IIab, GST-IIbIIIa, GST-IIIab and GST-IV expression vectors, respectively. The amino acids 1593-2217 of mouse IP3R1 were inserted into pGEX-4T-1 to obtain GST-IV-Va expression vector. These fusion proteins were expressed in Escherichia coli. GST-EL was expressed in Sf9 cells as described above. […]
For the determination of the IRBIT binding region and the critical amino acid residue of IP3R1, the diluted high salt extract was subjected to pulldown assay as described above with 100 pmol of GST, GST-EL, GST-Ia, GST-Iab, GST-IbIIa, GST-IIab, GST-IIbIIIa, GST-IIIab, GST-IV, GST-IV-Va, K508A or R441Q, and analyzed by Western blotting with anti-IRBIT antibody.

[2] = biological target: T2, type II phosphatidylinositol phosphate kinase β (Homo sapiens, UniProt P78356); test: Co-immunoprecipitation in Cos-7 cells with Myc-PIPKII β; format: binding; settings: overexpressing Cos-7 cells
T2 construct: expressed in transfected cells; host or cells: Cos-7
T2 sequence (P78356 1-416): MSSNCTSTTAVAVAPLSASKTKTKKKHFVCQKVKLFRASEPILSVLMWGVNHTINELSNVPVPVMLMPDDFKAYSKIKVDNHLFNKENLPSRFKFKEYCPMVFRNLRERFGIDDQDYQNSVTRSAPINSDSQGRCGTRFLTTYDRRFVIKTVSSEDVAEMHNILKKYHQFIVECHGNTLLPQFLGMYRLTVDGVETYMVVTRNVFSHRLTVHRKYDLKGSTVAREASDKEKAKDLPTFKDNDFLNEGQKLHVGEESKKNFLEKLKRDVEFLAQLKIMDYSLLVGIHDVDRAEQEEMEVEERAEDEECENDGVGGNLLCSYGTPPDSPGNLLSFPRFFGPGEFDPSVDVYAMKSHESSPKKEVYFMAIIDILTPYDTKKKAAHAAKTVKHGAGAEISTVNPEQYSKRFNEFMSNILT
Experimental: (§1) (A and B) IRBIT was transfected into Cos-7 cells with Myc-tagged type II phosphatidylinositol phosphate kinase α, β or γ (PIPKII α, β or γ). After two days, cells were lysed in lysis buffer, followed by centrifugation (100,000×g, 30 min). The supernatants were incubated with 3 μg of anti-IRBIT antibody, rabbit IgG, mouse anti-Myc antibody, or mouse IgG for 1 h at 4° C. After adding 5 μl of Protein G beads and another 1-h incubation, the beads were washed five times with lysis buffer and analyzed by Western blotting with anti-IRBIT antibody or HRP conjugated anti-Myc antibody. Immunoprecipitation of Myc-PIPKII α, β or γ with anti-Myc antibody co-precipitated IRBIT (A). In the reciprocal experiments, immunoprecipitation of IRBIT with anti-IRBIT antibody precipitated Myc-PIPKII α, β or γ.
as §1, with “IRBIT” for “(A and B) IRBIT”, “antibody.” for “antibody. Immunoprecipitation of Myc-PIPKII α, β or γ with anti-Myc antibody co-precipitated IRBIT (A). In the reciprocal experiments, immunoprecipitation of IRBIT with anti-IRBIT antibody precipitated Myc-PIPKII α, β or γ.”

T1 sequence (P11881 224-604 R441Q): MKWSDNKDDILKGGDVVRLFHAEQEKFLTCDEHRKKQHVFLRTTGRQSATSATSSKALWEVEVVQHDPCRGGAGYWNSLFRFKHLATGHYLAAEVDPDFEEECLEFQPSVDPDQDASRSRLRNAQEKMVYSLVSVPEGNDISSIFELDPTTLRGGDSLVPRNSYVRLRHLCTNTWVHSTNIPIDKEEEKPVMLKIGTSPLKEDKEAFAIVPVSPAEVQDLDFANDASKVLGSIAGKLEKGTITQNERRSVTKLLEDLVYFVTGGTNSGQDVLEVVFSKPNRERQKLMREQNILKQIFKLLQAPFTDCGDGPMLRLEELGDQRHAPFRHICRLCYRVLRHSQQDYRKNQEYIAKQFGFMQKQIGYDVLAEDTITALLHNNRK

B1: IRBIT: novel IP3 receptor-binding protein of 530 amino acids, SEQ ID NO: 1 (protein, listed as Mus musculus)
chain: MSMPDAMPLPGVGEELKQAKEIEDAEKYSFMATVTKAPKKQIQFADDMQEFTKFPTKTGRRSLSRSISQSSTDSYSSAASYTDSSDDEVSPREKQQTNSKGSSNFCVKNIKQAEFGRREIEIAEQDMSALISLRKRAQGEKPLAGAKIVGCTHITAQTAVLIETLCALGAQCRWSACNIYSTQNEVAAALAEAGVAVFAWKGESEDDFWWCIDRCVNMDGWQANMILDDGGDLTHWVYKKYPNVFKKIRGIVEESVTGVHRLYQLSKAGKLCVPAMNVNDSVTKQKFDNLYCCRESILDGLKRTTDVMFGGKQVVVCGYGEVGKGCCAALKALGAIVYITEIDPICALQACMDGFRVVKLNEVIRQVDVVITCTGNKNVVTREHLDRMKNSCIVCNMGHSNTEIDVTSLRTPELTWERVRSQVDHVIWPDGKRVVLLAEGRLLNLSCSTVPTFVLSITATTQALALIELYNAPEGRYKQDVYLLPKKMDEYVASLHLPSFDAHLTELTDDQAKYLGLNKNGPFKPNYYRY
binding to R441Q [1]: to the same extent | interaction with PIPKII β [2]: interacted

From patent US20050181450A1, “Novel inositol 1,4,5-trisphosphate (IP3) receptor-binding protein and an IP3 indicator” (priority 2002, published 2005)
